Data reported in patent US20230323466A1, “DETERMINING CANCER RESPONSIVENESS TO TREATMENT” (Queensland University of Technology, priority 2020, published 2023).

Test system: EGFR
Assay: EGF stimulation of EGFR wildtype cells, western blot of CDCA3 (FIG. 11)
Type: cell-based
Settings: EGFR wildtype cells stimulated with EGF
Source text: FIG. 11. CDCA3 levels are elevated in EGFR^mutNSCLC cell lines. Stimulation of receptor tyrosine kinase (RTK) signalling in EGFR wildtype cells induces the upregulation of CDCA3 protein.
The current Example examined whether elevated CDCA3 was as a result of activating mutations in epidermal growth factor receptor (EGFR) that solely occur in cases of NSCLC adenocarcinoma. In in vitro models of disease, CDCA3 protein levels were examined by western blot analysis and it was identified that CDCA3 protein is markedly elevated in EGFR mutant NSCLC cell lines versus EGFR wildtype cell lines (FIG. 11). The present inventors also identified that stimulation of EGFR wildtype cells with EGF, an EGFR ligand, induced PI3K-Akt downstream signal transduction and the upregulation of CDCA3 protein. PI3K-Akt was constitutively activated in EGFR mutant NSCLC cell lines.

B1: EGF: an EGFR ligand (protein, UniProt P01133 23-1207, looked up)
Pro-epidermal growth factor: PQHWSCPEGTLAGNGNSTCVGPAPFLIFSHGNSIFRIDTEGTNYEQLVVDAGVSVIMDFHYNEKRIYWVDLERQLLQRVFLNGSRQERVCNIEKNVSGMAINWINEEVIWSNQQEGIITVTDMKGNNSHILLSALKYPANVAVDPVERFIFWSSEVAGSLYRADLDGVGVKALLETSEKITAVSLDVLDKRLFWIQYNREGSNSLICSCDYDGGSVHISKHPTQHNLFAMSLFGDRIFYSTWKMKTIWIANKHTGKDMVRINLHSSFVPLGELKVVHPLAQPKAEDDTWEPEQKLCKLRKGNCSSTVCGQDLQSHLCMCAEGYALSRDRKYCEDVNECAFWNHGCTLGCKNTPGSYYCTCPVGFVLLPDGKRCHQLVSCPRNVSECSHDCVLTSEGPLCFCPEGSVLERDGKTCSGCSSPDNGGCSQLCVPLSPVSWECDCFPGYDLQLDEKSCAASGPQPFLLFANSQDIRHMHFDGTDYGTLLSQQMGMVYALDHDPVENKIYFAHTALKWIERANMDGSQRERLIEEGVDVPEGLAVDWIGRRFYWTDRGKSLIGRSDLNGKRSKIITKENISQPRGIAVHPMAKRLFWTDTGINPRIESSSLQGLGRLVIASSDLIWPSGITIDFLTDKLYWCDAKQSVIEMANLDGSKRRRLTQNDVGHPFAVAVFEDYVWFSDWAMPSVMRVNKRTGKDRVRLQGSMLKPSSLVVVHPLAKPGADPCLYQNGGCEHICKKRLGTAWCSCREGFMKASDGKTCLALDGHQLLAGGEVDLKNQVTPLDILSKTRVSEDNITESQHMLVAEIMVSDQDDCAPVGCSMYARCISEGEDATCQCLKGFAGDGKLCSDIDECEMGVPVCPPASSKCINTEGGYVCRCSEGYQGDGIHCLDIDECQLGEHSCGENASCTNTEGGYTCMCAGRLSEPGLICPDSTPPPHLREDDHHYSVRNSDSECPLSHDGYCLHDGVCMYIEALDKYACNCVVGYIGERCQYRDLKWWELRHAGHGQQQKVIVVAVCVVVLVMLLLLSLWGAHYYRTQKLLSKNPKNPYEESSRDVRSRRPADTEDGMSSCPQPWFVVIKEHQDLKNGGQPVAGEDGQAADGSMQPTSWRQEPQLCGMGTEQGCWIPVSSDKGSCPQVMERSFHMPSYGTQTLEGGVEKPHSLLSANPLWQQRALDPPHQMELTQ
modifications: Pro-epidermal growth factor
notes: an EGFR ligand
B1 was tested, and the CDCA3 protein was “upregulation”.
